B1: RAC-beta serine/threonine-protein kinase (Homo sapiens), P31751 (parent)
chain: MNEVSVIKEGWLHKRGEYIKTWRPRYFLLKSDGSFIGYKERPEAPDQTLPPLNNFSVAECQLMKTERPRPNTFVIRCLQWTTVIERTFHVDSPDEREEWMRAIQMVANSLKQRAPGEDPMDYKCGSPSDSSTTEEMEVAVSKARAKVTMNDFDYLKLLGKGTFGKVILVREKATGRYYAMKILRKEVIIAKDEVAHTVTESRVLQNTRHPFLTALKYAFQTHDRLCFVMEYANGGELFFHLSRERVFTEERARFYGAEIVSALEYLHSRDVVYRDIKLENLMLDKDGHIKITDFGLCKEGISDGATMKTFCGTPEYLAPEVLEDNDYGRAVDWWGLGVVMYEMMCGRLPFYNQDHERLFELILMEEIRFPRTLSPEAKSLLAGLLKKDPKQRLGGGPSDAKEVMEHRFFLSINWQDVVQKKLLPPFKPQVTSEVDTRYFDDEFTAQSITITPPDRYDSLGLLELDQRTHFPQFSYSASIRE

Variants of: B1
Conditions: with ttc3_human TTC3, P53804
Chain of ttc3_human TTC3, P53804 (P53804 whole entry): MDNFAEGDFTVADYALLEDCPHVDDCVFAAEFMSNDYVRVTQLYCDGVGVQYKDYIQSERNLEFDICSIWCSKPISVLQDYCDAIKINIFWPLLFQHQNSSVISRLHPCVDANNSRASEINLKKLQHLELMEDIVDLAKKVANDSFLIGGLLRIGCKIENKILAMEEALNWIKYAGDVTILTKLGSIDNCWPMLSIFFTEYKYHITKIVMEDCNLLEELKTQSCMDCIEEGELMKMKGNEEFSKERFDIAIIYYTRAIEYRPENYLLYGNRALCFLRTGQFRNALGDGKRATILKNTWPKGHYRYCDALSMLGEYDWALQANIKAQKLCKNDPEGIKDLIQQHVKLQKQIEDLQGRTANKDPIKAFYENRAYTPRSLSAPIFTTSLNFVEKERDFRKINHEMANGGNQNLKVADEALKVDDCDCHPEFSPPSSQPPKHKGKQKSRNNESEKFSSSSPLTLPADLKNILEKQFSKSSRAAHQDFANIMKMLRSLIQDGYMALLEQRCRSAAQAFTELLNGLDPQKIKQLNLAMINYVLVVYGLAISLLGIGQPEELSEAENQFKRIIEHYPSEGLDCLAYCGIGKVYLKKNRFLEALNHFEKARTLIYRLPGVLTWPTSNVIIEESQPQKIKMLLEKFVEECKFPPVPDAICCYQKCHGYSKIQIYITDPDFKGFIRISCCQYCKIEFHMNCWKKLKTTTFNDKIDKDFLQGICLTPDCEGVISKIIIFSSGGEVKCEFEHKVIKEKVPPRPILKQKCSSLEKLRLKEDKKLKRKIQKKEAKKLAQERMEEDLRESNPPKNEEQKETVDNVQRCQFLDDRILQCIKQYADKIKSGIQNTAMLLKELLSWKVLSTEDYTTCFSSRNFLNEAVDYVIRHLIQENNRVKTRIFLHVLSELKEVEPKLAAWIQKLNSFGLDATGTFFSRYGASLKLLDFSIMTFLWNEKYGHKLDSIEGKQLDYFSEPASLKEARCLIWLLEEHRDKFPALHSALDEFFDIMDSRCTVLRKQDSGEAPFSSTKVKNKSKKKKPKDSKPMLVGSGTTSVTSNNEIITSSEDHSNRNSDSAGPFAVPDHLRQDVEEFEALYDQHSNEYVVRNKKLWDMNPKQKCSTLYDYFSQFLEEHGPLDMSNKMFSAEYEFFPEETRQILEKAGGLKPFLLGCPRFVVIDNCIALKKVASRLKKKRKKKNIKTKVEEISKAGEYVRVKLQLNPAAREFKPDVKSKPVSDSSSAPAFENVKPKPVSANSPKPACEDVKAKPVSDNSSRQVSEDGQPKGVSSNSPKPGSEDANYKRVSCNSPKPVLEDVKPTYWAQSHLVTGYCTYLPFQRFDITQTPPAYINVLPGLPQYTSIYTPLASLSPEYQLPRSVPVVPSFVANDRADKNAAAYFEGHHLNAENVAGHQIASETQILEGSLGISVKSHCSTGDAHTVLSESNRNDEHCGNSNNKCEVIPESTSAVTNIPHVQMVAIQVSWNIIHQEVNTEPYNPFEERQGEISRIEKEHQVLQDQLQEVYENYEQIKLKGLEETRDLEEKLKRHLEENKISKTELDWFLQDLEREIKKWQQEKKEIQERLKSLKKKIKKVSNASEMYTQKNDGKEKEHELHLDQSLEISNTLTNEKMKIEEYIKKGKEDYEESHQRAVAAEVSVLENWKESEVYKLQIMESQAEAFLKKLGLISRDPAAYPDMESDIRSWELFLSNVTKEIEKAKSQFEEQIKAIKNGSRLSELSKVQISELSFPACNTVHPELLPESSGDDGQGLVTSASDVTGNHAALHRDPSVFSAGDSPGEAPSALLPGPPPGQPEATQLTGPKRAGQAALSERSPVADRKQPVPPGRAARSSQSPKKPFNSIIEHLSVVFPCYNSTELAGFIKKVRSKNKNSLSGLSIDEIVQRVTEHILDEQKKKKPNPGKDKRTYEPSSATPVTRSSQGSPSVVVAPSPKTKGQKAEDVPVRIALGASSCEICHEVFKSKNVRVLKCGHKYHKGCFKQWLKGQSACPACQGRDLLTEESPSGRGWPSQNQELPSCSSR

effect of a mutation on the interaction | Variant
disrupting interaction strength | T309A;S474A

From IntAct's records for PubMed 20059950
